T1: HLA-DQ2.5 on Ba/F3 cells (not in the form of a complex with a linked peptide) (human, UniProt P01909 24-254; P01920 33-261)
T1 construct: also called Ba/F3-HLA-DQ2.5; No peptide
T1 MHC II alpha: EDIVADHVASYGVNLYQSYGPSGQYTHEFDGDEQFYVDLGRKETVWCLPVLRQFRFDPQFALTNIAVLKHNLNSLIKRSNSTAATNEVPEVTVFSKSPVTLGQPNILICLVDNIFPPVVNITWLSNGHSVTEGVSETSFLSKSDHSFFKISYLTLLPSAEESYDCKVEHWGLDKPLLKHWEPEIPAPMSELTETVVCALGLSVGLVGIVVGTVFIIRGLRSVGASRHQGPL
T1 MHC II beta: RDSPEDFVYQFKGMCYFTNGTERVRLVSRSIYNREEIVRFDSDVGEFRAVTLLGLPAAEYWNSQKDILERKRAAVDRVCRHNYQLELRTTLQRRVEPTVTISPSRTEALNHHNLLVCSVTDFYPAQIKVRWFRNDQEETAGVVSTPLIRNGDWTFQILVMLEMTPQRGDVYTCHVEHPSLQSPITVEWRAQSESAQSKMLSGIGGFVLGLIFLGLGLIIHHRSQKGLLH

T2: HLA-DQ2.5 on HLA-DQ2.5 positive PBMC-B cells (human, UniProt P01909 24-254; P01920 33-261)
T2 construct: also called DQ2.5 + PBMC; HLA-DQ2.5+PBMC B cell
T2 MHC II alpha: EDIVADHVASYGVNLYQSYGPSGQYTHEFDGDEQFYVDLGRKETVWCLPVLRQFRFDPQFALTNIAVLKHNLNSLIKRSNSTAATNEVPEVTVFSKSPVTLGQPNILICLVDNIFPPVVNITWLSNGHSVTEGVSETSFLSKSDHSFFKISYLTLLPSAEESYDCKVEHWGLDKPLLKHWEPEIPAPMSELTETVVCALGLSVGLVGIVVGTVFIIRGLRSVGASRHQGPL
T2 MHC II beta: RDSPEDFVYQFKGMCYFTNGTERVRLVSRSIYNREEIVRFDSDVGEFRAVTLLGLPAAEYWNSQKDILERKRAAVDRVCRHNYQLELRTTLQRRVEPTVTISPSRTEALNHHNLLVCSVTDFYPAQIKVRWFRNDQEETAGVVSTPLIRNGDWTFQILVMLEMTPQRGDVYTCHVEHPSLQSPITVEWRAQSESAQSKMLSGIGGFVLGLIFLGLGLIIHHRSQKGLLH

T3: recombinant HLA-DQ2.5/33mer gliadin peptide complex (human; wheat)
T3 construct: also called soluble HLA-DQ2.5/33mer gliadin peptide complex
T3 alpha: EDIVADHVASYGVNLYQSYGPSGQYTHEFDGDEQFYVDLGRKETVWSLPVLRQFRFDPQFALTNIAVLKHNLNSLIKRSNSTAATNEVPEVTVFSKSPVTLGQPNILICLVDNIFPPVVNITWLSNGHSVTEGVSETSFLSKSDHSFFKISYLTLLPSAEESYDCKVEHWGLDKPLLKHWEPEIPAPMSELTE
T3 beta: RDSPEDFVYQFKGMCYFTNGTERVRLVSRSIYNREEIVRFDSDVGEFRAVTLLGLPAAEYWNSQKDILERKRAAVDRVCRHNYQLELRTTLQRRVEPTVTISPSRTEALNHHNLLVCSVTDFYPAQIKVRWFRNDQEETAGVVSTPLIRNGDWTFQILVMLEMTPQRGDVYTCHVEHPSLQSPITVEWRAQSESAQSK
T3 peptide: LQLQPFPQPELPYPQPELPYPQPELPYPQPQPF

B1: DQN0223hh (antibody, human IgG1, kappa, V domains shown)
VH: QQQLEESGGGLVKPGGTLTLTCKASRIDFSTYYYICWVRQSPWKGLEWIACIYSGDGYTYYPSWAKGRFSISKTSSTTVTLQVTSLTAADTATYFCARSYGGSSASAYFTLWGPGTQVTVSS
VL: AVVLTQTASPVSAPVGGTVTIKCQASQSIGSNLGWYQQKPGQPPKLLIYGASALASGVPSRFKGSGSGTQFTLTINDLECADAATYYCQGYYYSSSAEWHSFGGGTKVEIKR
notes: also called DQN0223Lh
B2: DQN0356bb (antibody, human IgG1, kappa, V domains shown)
VH: QEQLVESGGGLVKPEGSLTLTCTASGFSFSSDYSVCWVRQAPGKGLEWIGCIYTGSDITYYASWAKGRFTISKTSSTTVTLQMTSLTAADTATWFCARSWNGYGGYADLWGPGTLVTVSS
VL: AYDMAQTPASVEVAVGGTVTIKCQASQSIDNYLAWYQQKPGQPPKLLIYWASTLASGVSSRFKGSGSGTQFSLTISDLECADAATYYCQQYYSNSNVVNTFGGGTKVEIKR
notes: also called DQN0356Hb; DQN0356Lb
B3: DQN0271hh (antibody, human IgG1, kappa, V domains shown)
VH: QSLEESGGGLVKPGASLTLTCKASGFSFSSGYYMCWVRQAPGKGLEWIACIYAGSPDLTYYATWAKGRLTISTTSSTTVTLQLTSLTAADTATYFCARDPGNWGGYDDVRLWGPGTLVTVSS
VL: AQVLTQTPSPVSAAVGGTVTISCQSSQSIYSNYLSWFQQKTGQPPKLLIYRASTLASGVPSRFKGSGSGTEFTLTISGVECDDAATYYCQGYYSGAIWTFGGGTKVEIKR
notes: also called DQN0271Lh
B4: DQN0235ee (antibody, human IgG1, kappa, V domains shown)
VH: QQQLEESGGGLVKPGGTLTLTCKAGIDFSTYYYMCWVRQAPGKRPEWIACIFDGDGSTYYASWVNGRFTISKASSTTVTLRMTSLTAADTATYFCARSAGGSSSFGYFNLWGPGTLVTVSS
VL: AYDMTQTPSSVSAAVGGTVTIKCQASQSISSSYLAWYHQKPGQSPKLLIYSASTLASGVPSRFKGSGSGTEFTLTISDLACADAATYYCQSYYYFSSNAWHTFGGGTKVEIKR
notes: also called DQN0235He; DQN0235Le

Key:
[1] = target: T4, HLA-DQ2.5/33mer gliadin peptide complex on Ba/F3 cells (human; wheat); assay: FACS
T4 construct: also called Ba/F3-HLA-DQ2.5/33mer gliadin peptide; HLA-DQ2.5/gliadin peptide complex

[2] = target: T5, HLA-DQ2.5/CLIP peptide complex on Ba/F3 cells (human); assay: FACS
T5 construct: also called Ba/F3-HLA-DQ2.5/CLIP peptide

[3] = target: T6, HLA-DQ2.5/alpha 1 gliadin peptide complex on Ba/F3 cells (human; wheat); assay: FACS
T6 construct: also called Ba/F3-HLA-DQ2.5/alpha 1 gliadin peptide

[4] = target: T7, HLA-DQ2.5/alpha 1b gliadin peptide complex on Ba/F3 cells (human; wheat); assay: FACS
T7 construct: also called Ba/F3-HLA-DQ2.5/alpha 1b gliadin peptide

[5] = target: T8, HLA-DQ2.5/alpha 2 gliadin peptide complex on Ba/F3 cells (human; wheat); assay: FACS
T8 construct: also called Ba/F3-HLA-DQ2.5/alpha 2 gliadin peptide

[6] = target: T9, HLA-DQ2.5/omega 1 gliadin peptide complex on Ba/F3 cells (human; wheat); assay: FACS
T9 construct: also called Ba/F3-HLA-DQ2.5/omega 1 gliadin peptide

[7] = target: T10, HLA-DQ2.5/omega 2 gliadin peptide complex on Ba/F3 cells (human; wheat); assay: FACS
T10 construct: also called Ba/F3-HLA-DQ2.5/omega 2 gliadin peptide

[8] = target: T11, HLA-DQ2.5/secalin 1 peptide complex on Ba/F3 cells (human; rye); assay: FACS
T11 construct: also called Ba/F3-HLA-DQ2.5/secalin 1 peptide

[9] = target: T12, HLA-DQ2.5/secalin 2 peptide complex on Ba/F3 cells (human; rye); assay: FACS
T12 construct: also called Ba/F3-HLA-DQ2.5/secalin 2 peptide

[10] = target: T1, HLA-DQ2.5 on Ba/F3 cells (not in the …); assay: FACS
[11] = target: T2, HLA-DQ2.5 on HLA-DQ2.5 positive PBMC-B …; assay: FACS
[12] = target: T4, HLA-DQ2.5/33mer gliadin peptide complex …; assay: cell-based or functional assay
[13] = target: T3, recombinant HLA-DQ2.5/33mer gliadin …; assay: SPR, Ab captured, 37 C, pH 7.4

Row | Binder | FIG. 30 FACS value (IC17=0, DQN0139bb=100) [1] | FIG. 30 FACS value (IC17=0, DQN0139bb=100) [2] | FIG. 30 FACS value (IC17=0, DQN0139bb=100) [3] | FIG. 30 FACS value (IC17=0, DQN0139bb=100) [4] | FIG. 30 FACS value (IC17=0, DQN0139bb=100) [5] | FIG. 30 FACS value (IC17=0, DQN0139bb=100) [6] | FIG. 30 FACS value (IC17=0, DQN0139bb=100) [7] | FIG. 30 FACS value (IC17=0, DQN0139bb=100) [8] | FIG. 30 FACS value (IC17=0, DQN0139bb=100) [9] | FIG. 30 FACS value (IC17=0, DQN0139bb=100) [10] | FIG. 30 FACS value (IC17=0, DQN0139bb=100) [11] | IC50 (read off the curve) [12] [µg/mL] | Kd [13] [nM]
1 | B1 | 59.5 | 60.2 | 27.9 | 36 | 46.8 | 46 | 59 | 47.6 | 48.4 | – | – | – | –
2 | B2 | 91.1 | 98.3 | 94.9 | 88 | 85.6 | 76 | 68.8 | 74.5 | 77.8 | – | – | – | –
3 | B3 | 106 | 3.8 | 91.2 | 80.5 | 83 | 79.3 | 68.9 | 65.3 | 70.2 | 0 | 0 | ~0.3 | 6.07
4 | B4 | 70.1 | 82 | 52.3 | – | 81.3 | 75.2 | 78.8 | 73.4 | 71.1 | – | – | – | –
